Source: US9708375 (Amgen, dated 2017)
Positions count from the first letter of the chain named. Numbers in names are those of the source.

T1: biotin labeled human recombinant Sclerostin (human, UniProt Q9BQB4 24-213)
T1 construct: also called human Sclerostin; huSOST
T1 sequence (looked up): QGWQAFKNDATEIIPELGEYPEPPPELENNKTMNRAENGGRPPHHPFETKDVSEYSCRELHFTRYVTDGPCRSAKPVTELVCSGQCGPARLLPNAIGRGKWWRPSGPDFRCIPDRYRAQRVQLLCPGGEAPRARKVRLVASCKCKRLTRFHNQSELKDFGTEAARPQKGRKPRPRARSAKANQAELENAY

T2: human recombinant Dkk-1 (human, UniProt O94907 32-266)
T2 construct: also called human Dkk-1; human Dkk1
T2 sequence (looked up): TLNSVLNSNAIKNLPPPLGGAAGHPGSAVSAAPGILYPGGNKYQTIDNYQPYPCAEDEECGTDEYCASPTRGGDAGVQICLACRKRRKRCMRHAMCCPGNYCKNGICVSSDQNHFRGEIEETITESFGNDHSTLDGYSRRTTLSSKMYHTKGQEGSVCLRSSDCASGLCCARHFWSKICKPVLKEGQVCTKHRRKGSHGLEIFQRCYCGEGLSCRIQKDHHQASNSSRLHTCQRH

B1: P7656 (bispecific antibody, human IgG2, lambda)
heavy: QVQLVESGGGVVQPGRSLRLSCAASGFTFSRYDMHWVRQAPGKGLEWVAIIFYDGSNKYYADPVKGRFTISRDNSKNTLYLQMNSLRAEDTAVYYCATLAAAFDYWGQGTLVTVSSASTKGPSVFPLAPCSRSTSESTAALGCLVKDYFPEPVTVSWNSGALTSGVHTFPAVLQSSGLYSLSSVVTVPSSNFGTQTYTCNVDHKPSNTKVDKTVERKCCVECPPCPAPPVAGPSVFLFPPKPKDTLMISRTPEVTCVVVDVSHEDPEVQFNWYVDGVEVHNAKTKPREEQFNSTFRVVSVLTVVHQDWLNGKEYKCKVSNKGLPAPIEKTISKTKGQPREPQVYTLPPSREEMTKNQVSLTCLVKGFYPSDIAVEWESNGQPENNYKTTPPMLDSDGSFFLYSKLTVDKSRWQQGNVFSCSVMHEALHNHYTQKSLSLSPGKSSGGSCAPNQFRCNSYDKCVPAHWVCDGVLDCLDSSDETNCGGGGSGGGGSCPAYTEFLCKDSDRCFPSEWRCDGEMDCVDGSDELHC
light: YVLTQPPSVSVAPGQTARITCGGNNIGSKSVHWYQQKPGQAPVLVVYDDSDRPSEIPERFSGSNSGNTATLTISRVEAGDEADYYCQVWDSSSDHVVFGGGTRLTVLGQPKAAPSVTLFPPSSEELQANKATLVCLISDFYPGAVTVAWKADSSPVKAGVETTTPSKQSNNKYAASSYLSLTPEQWKSHRSYSCQVTHEGSTVEKTVAPTECS
notes: also called C140166
B2: P7078 (bispecific antibody, human IgG2, lambda)
heavy: SGGSWCPPNHFMCNSYDKCVPAHWFCDGVLDCLDSSDETNCSAPASEPPGSLCPAYTEFLCKDSDRCFPSEWRCDGEMDCVDGSDELHCAYHTSQVQLVESGGGVVQPGRSLRLSCAASGFTFSRYDMHWVRQAPGKGLEWVAIIFYDGSNKYYADPVKGRFTISRDNSKNTLYLQMNSLRAEDTAVYYCATLAAAFDYWGQGTLVTVSSASTKGPSVFPLAPCSRSTSESTAALGCLVKDYFPEPVTVSWNSGALTSGVHTFPAVLQSSGLYSLSSVVTVPSSNFGTQTYTCNVDHKPSNTKVDKTVERKCCVECPPCPAPPVAGPSVFLFPPKPKDTLMISRTPEVTCVVVDVSHEDPEVQFNWYVDGVEVHNAKTKPREEQFNSTFRVVSVLTVVHQDWLNGKEYKCKVSNKGLPAPIEKTISKTKGQPREPQVYTLPPSREEMTKNQVSLTCLVKGFYPSDIAVEWESNGQPENNYKTTPPMLDSDGSFFLYSKLTVDKSRWQQGNVFSCSVMHEALHNHYTQKSLSLSPGK
light: B1 light
notes: also called P6886; Ab-Avimer-5 (P7078A)
B3: P7070 (bispecific antibody, human IgG2, lambda)
heavy: QVQLVESGGGVVQPGRSLRLSCAASGFTFSRYDMHWVRQAPGKGLEWVAIIFYDGSNKYYADPVKGRFTISRDNSKNTLYLQMNSLRAEDTAVYYCATLAAAFDYWGQGTLVTVSSASTKGPSVFPLAPCSRSTSESTAALGCLVKDYFPEPVTVSWNSGALTSGVHTFPAVLQSSGLYSLSSVVTVPSSNFGTQTYTCNVDHKPSNTKVDKTVERKCCVECPPCPAPPVAGPSVFLFPPKPKDTLMISRTPEVTCVVVDVSHEDPEVQFNWYVDGVEVHNAKTKPREEQFNSTFRVVSVLTVVHQDWLNGKEYKCKVSNKGLPAPIEKTISKTKGQPREPQVYTLPPSREEMTKNQVSLTCLVKGFYPSDIAVEWESNGQPENNYKTTPPMLDSDGSFFLYSKLTVDKSRWQQGNVFSCSVMHEALHNHYTQKSLSLSPGKSSGGSWCPPNHFMCNSYDKCVPAHWFCDGVLDCLDSSDETNCSAPASEPPGSLCPAYTEFLCKDSDRCFPSEWRCDGEMDCVDGSDELHCAYHTSLQ
light: B1 light
notes: also called P6992; Ab-Avimer-3 (P7070A)
B4: P7069 (bispecific antibody, human IgG2, lambda)
heavy: QVQLVESGGGVVQPGRSLRLSCAASGFTFSRYDMHWVRQAPGKGLEWVAIIFYDGSNKYYADPVKGRFTISRDNSKNTLYLQMNSLRAEDTAVYYCATLAAAFDYWGQGTLVTVSSASTKGPSVFPLAPCSRSTSESTAALGCLVKDYFPEPVTVSWNSGALTSGVHTFPAVLQSSGLYSLSSVVTVPSSNFGTQTYTCNVDHKPSNTKVDKTVERKCCVECPPCPAPPVAGPSVFLFPPKPKDTLMISRTPEVTCVVVDVSHEDPEVQFNWYVDGVEVHNAKTKPREEQFNSTFRVVSVLTVVHQDWLNGKEYKCKVSNKGLPAPIEKTISKTKGQPREPQVYTLPPSREEMTKNQVSLTCLVKGFYPSDIAVEWESNGQPENNYKTTPPMLDSDGSFFLYSKLTVDKSRWQQGNVFSCSVMHEALHNHYTQKSLSLSPGKSSGGSCPAYTEFLCKDSDRCFPSEWRCDGEMDCVDGSDELHCAYHTCAPNQFRCNSYDKCVPAHWVCDGVLDCLDSSDETNCSAPASEPPGSLSLQ
light: B1 light
notes: also called P6991; Ab-Avimer-2 (P7069A)
B5: P7649 (bispecific antibody, human IgG2, lambda)
heavy: QVQLVESGGGVVQPGRSLRLSCAASGFTFSRYDMHWVRQAPGKGLEWVAIIFYDGSNKYYADPVKGRFTISRDNSKNTLYLQMNSLRAEDTAVYYCATLAAAFDYWGQGTLVTVSSASTKGPSVFPLAPCSRSTSESTAALGCLVKDYFPEPVTVSWNSGALTSGVHTFPAVLQSSGLYSLSSVVTVPSSNFGTQTYTCNVDHKPSNTKVDKTVERKCCVECPPCPAPPVAGPSVFLFPPKPKDTLMISRTPEVTCVVVDVSHEDPEVQFNWYVDGVEVHNAKTKPREEQFNSTFRVVSVLTVVHQDWLNGKEYKCKVSNKGLPAPIEKTISKTKGQPREPQVYTLPPSREEMTKNQVSLTCLVKGFYPSDIAVEWESNGQPENNYKTTPPMLDSDGSFFLYSKLTVDKSRWQQGNVFSCSVMHEALHNHYTQKSLSLSPGSSGGSCAPNQFRCNSYDKCVPAHWVCDGVLDCLDSSDETNCSAPASEPPGSLCPAYTEFLCKDSDRCFPSEWRCDGEMDCVDGSDELHCAYHTSLQ
light: B1 light
notes: also called C140159
B6: P7650 (bispecific antibody, human IgG2, lambda)
heavy: B5 heavy with A448G, P449R, N450D, Q451H, N455R, V466L, N481Y
light: B1 light
notes: also called C140160

Assays:
[1] = molecular target: T1, biotin labeled human recombinant …; assay: AlphaScreen Sclerostin/LRP-6 inhibition
human recombinant Dkk-1 = molecular target: T2, human recombinant Dkk-1; assay: AlphaScreen Dkk-1/LRP-6 inhibition

| Binder | binding result [1] | binding result (human recombinant Dkk-1) |
| --- | --- | --- |
| B1 | binds | – |
| B2 | binds | – |
| B3 | binds | – |
| B4 | binds | – |
| B5 | binds | – |
| B6 | binds | – |
| CPSNEFMCADKMCFPLIFLCDGENDCEDGSDEVDCPSRT (designed binder) [C4234] | – | binds |
| CPASYFQCRNNNHCYPMEWRCDGFQDCEDGSDEKGCPYRT (designed binder) [C4229] | – | binds |
